{"source": "patent US20190336574A1", "about": "(TRUSTEES OF PRINCETON UNIVERSITY, published 2019)", "binders": {"B1": {"name": "Myc-MTDH D393R, full-length human (other)", "chain": "MAARSWQDELAQQAEEGSARLREMLSVGLGFLRTELGLDLGLEPKRYPGWVILVGTGALGLLLLFLLGYGWAAACAGSRKKRRSPPRKREEAAAVPAAAPDDLALLKNLRSEEQKKKNRKKLSEKPKPNGRTVEVAEGEAVRTPQSVTAKQPPEIDKKNEKSKKNKKKSKSDAKAVQNSSRHDGKEVDEGAWETKISHREKRQQRKRDKVLTDSGSLDSTIPGIENTITVTTEQLTTASFPVGSKKNKGDSHLNVQVSNFKSGKGDSTLQVSSGLNENLTVNGGGWNEKSVKLSSQISAGEEKWNSVSPASAGKRKAEPSAWSQDTGDANTNGKDWGRSWSDRSIFSGIGSTAEPVSQSTTSDYQWDVSRNQPYIDDEWSGLNGLSSADPNSRWNAPAEEWGNWVDEERASLLKSQEPIPDDQKVSDDDKEKGEGALPTGKSKKKKKKKKKQGEDNSTAQDTEELEKEIREDLPVNTSKTRPKQEKAFSLKTISTSDPAEVLVKNSQPIKTLPPATSTEPSVILSKSDSDKSSSQVPPILQETDKSKSNTKQNSVPPSQTKSETSWESPKQIKKKKKARRET", "notes": "Full-length, Myc-tagged; also called SPM12"}, "B2": {"name": "Myc-MTDH D406R, full-length human (other)", "chain": "B1 chain with R393D, D406R", "notes": "Full-length, Myc-tagged; also called SPM32"}, "B3": {"name": "Myc-MTDH W404D, full-length human (other)", "chain": "B1 chain with R393D, W404D", "notes": "Full-length, Myc-tagged; also called SPM31"}, "B4": {"name": "Myc-MTDH E407R, full-length human (other)", "chain": "B1 chain with R393D, E407R", "notes": "Full-length, Myc-tagged; also called SPM33"}, "B5": {"name": "GST-MTDH (386-407), wild type (other)", "chain": "SSADPNSDWNAPAEEWGNWVDE", "modifications": "not fully specified (N-terminus)", "notes": "not shown: N-terminal GST tag with TEV site, pQlink vector"}, "B6": {"name": "A396D (other)", "fusion protein": "SSADPNSDWNDPAEEWGNWVDE", "notes": "member of the group m64"}, "B7": {"name": "N395K (other)", "fusion protein": "SSADPNSDWKAPAEEWGNWVDE", "notes": "member of the group m64"}, "B8": {"name": "E400D/N403L (other)", "fusion protein": "SSADPNSDWNAPAEDWGLWVDE", "notes": "member of the group m64"}, "B9": {"name": "GST-MTDH (364-582) N403A (other)", "chain": "YQWDVSRNQPYIDDEWSGLNGLSSADPNSDWNAPAEEWGAWVDEERASLLKSQEPIPDDQKVSDDDKEKGEGALPTGKSKKKKKKKKKQGEDNSTAQDTEELEKEIREDLPVNTSKTRPKQEKAFSLKTISTSDPAEVLVKNSQPIKTLPPATSTEPSVILSKSDSDKSSSQVPPILQETDKSKSNTKQNSVPPSQTKSETSWESPKQIKKKKKARRET", "notes": "as for B5"}, "B10": {"name": "GST-MTDH (364-582) W401D (other)", "chain": "B9 chain with W38D, A40N", "notes": "as for B5"}, "B11": {"name": "Myc-MTDH D389R, full-length human (other)", "chain": "B1 chain with D389R, R393D", "notes": "Full-length, Myc-tagged; also called SPM11"}, "B12": {"name": "Myc-MTDH W401A, full-length human (other)", "chain": "B1 chain with R393D, W401A", "notes": "Full-length, Myc-tagged"}, "B13": {"name": "Myc-MTDH W394D, full-length human (other)", "chain": "B1 chain with R393D, W394D", "notes": "Full-length, Myc-tagged; also called SPM13"}, "B14": {"name": "Myc-MTDH W394A, full-length human (other)", "chain": "B1 chain with R393D, W394A", "notes": "Full-length, Myc-tagged"}}, "note": "Changes are numbered by the printed parent chain. In names and notes the source's numbering stands. Where no end group is shown, it is not given here."}
{"molecular_target": "T1, HA-SND1, full-length human, wild type (human, UniProt Q7KZF4 1-910)", "T1 construct": "Full-length, HA-tagged; Expressed in HEK293T cells, tested in lysate; also called HA-tagged SND1; WT HA-SND1", "T1 sequence": "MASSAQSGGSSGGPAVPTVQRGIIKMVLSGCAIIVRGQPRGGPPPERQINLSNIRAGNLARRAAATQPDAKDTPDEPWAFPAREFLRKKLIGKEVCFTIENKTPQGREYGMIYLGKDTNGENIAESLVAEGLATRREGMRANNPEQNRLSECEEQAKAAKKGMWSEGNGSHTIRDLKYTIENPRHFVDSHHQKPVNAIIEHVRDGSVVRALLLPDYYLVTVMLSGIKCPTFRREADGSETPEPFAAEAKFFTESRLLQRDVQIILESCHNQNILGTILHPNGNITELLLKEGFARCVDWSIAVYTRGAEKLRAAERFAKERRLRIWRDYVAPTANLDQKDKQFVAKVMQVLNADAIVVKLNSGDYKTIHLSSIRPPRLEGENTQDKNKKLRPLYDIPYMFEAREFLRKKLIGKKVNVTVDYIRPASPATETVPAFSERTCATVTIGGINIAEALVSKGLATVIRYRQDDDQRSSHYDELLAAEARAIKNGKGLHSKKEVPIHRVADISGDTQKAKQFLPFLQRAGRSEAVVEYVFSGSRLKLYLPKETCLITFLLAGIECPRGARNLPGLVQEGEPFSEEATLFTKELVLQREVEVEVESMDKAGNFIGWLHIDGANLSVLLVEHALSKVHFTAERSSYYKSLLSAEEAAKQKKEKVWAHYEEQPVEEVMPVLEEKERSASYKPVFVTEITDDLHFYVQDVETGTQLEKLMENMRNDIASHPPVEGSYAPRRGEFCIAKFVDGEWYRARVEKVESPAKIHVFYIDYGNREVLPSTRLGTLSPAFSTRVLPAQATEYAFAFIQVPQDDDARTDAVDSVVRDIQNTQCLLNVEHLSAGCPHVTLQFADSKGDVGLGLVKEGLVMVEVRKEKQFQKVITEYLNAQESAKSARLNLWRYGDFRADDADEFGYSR", "assay": "co-IP (anti-Myc) from HEK293T lysates, western blot"}
{"binder": "B1", "binding result": "binds"}
{"binder": "B2", "binding result": "binds"}
{"binder": "B3", "binding result": "binds"}
{"binder": "B4", "binding result": "binds"}
{"molecular_target": "T2, His-SND1 (16-339), SN1/2 domains, wild type (human, UniProt Q7KZF4 16-339)", "T2 construct": "also called His6-SND1 harboring the SN1/2 domains; not shown: N-terminal His tag (His6, His8 or His) with TEV site, pQlink vector", "T2 sequence": "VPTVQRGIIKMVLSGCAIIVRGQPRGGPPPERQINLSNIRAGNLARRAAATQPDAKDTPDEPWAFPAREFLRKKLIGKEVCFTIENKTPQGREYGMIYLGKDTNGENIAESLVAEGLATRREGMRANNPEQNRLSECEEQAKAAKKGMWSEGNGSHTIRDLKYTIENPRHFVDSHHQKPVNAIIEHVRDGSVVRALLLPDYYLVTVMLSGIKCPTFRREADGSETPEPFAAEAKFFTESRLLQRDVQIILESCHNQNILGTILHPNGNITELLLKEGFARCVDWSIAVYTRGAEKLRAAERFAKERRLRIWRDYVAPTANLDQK", "assay": "GST titration pull-down: GST-MTDH (386-407) on glutathione resin, SND1 (SN1/2) at 10, 3, 1, 0.5, 0.25, 0.12 (the sheet prints mM, paragraph 254 says µM), SDS-PAGE, Coomassie blue", "units": {"Estimated Binding Affinity": "µM"}}
{"binder": "B5", "Estimated Binding Affinity": "~1.2"}
{"binder": "B6", "Estimated Binding Affinity": "~1.5"}
{"binder": "B7", "Estimated Binding Affinity": "~0.8"}
{"binder": "B8", "Estimated Binding Affinity": "~0.9"}
{"molecular_target": "T2, His-SND1 (16-339), SN1/2 domains, wild …", "assay": "GST pull-down on glutathione resin, SDS-PAGE, Coomassie blue; normalised percentage of binding, mean±SEM of three experiments", "text": "The proteins bound to GS4B were examined on SDS-PAGE and visualized by Coomassie blue staining. […] The bound proteins were examined as in (FIG. 22A). For both (FIG. 22A) and (FIG. 22B), experiments were repeated three times; representative results are shown. The normalized percentage of binding was averaged from three experiments; mean±SEM was shown below the data. (FIG. 22C) HEK293T cells were transfected with human HA-SND1, WT Myc-MTDH or Myc-MTDH with indicated single point mutation. Lysates were immunoprecipitated with anti-Myc antibody and immunoblotted with the indicated antibodies. (FIG. 22D) HEK293T cells were transfected with human Myc-MTDH, WT HA-SND1 or mutant HA-SND1 with indicated single point mutations or deletions. Lysates were immunoprecipitated with anti-Myc and immunoblotted with the indicated antibodies.\nGST-Mediated Pull-Down Assay: ˜20 μg of GST-MTDH (different truncation forms and site mutants) was bound to 10 μl of glutathione resin via GST tag. The resin was washed with 200 μl assay buffer (25 mM Tris, PH8.0, 150 mM NaCl, 3 mM DTT) three times to remove the excess unbound protein. […] The mixture was washed with 200 μl assay buffer twice before examined by SDS-PAGE, and visualized by Coomassie blue staining. The experiments were repeated 3 times and the ratio of SND1 associated with GST-MTDH was analyzed by ImageJ.\nIdentification of MTDH and SND1 mutants deficient in binding: To gain insight into how the interface characterized above contributes to MTDH-SND1 interaction, structure-guided mutagenesis studies were performed.", "units": {"% Maximum binding": "%"}}
{"binder": "B9", "% Maximum binding": 68}
{"binder": "B10", "% Maximum binding": 46}
{"molecular_target": "T1, HA-SND1, full-length human, wild type", "assay": "co-IP from HEK293T lysates (anti-HA per text, anti-Myc per legend), western blot", "protocol": "Immunoprecipitation and western blot: For in vivo immunoprecipitation (IP) experiments, cultured cells were washed in cold PBS and lysed in lysis buffer (20 mM Tris pH 7.4, 0.15 M NaCl, 1 mM EDTA, 1 mM EGTA, 1% Tx-100, 0.0025 M Na2P2O7, 1 mM β-glycerolphosphate, 1 mM Na3VO4, and 1 mM NaF) with an EDTA-free protease inhibitor mixture (Roche Applied Science) and PMSF. Cell lysates were then incubated on ice for 10 min, centrifuged, and precleared by incubating with protein A/G beads (Santa Cruz Biotechnology) for 1 h at 4° C. For IP bead preparation, 30 μl of protein A/G beads were incubated with 5 μg of antibodies for 2 h at 4° C. IPs were carried out for overnight at 4° C., and beads were centrifuged, washed and subsequently boiled for 5 min in SDS protein loading buffer to elute bound protein. IP lysates were subjected to western blotting with indicated antibodies.\nIt was further examined how the MTDH and SND1 mutations identified at this interface affected the interaction of full-length proteins in mammalian cells. Full-length HA-tagged SND1 was co-expressed with full-length Myc-tagged wild-type (WT) or mutant MTDH in HEK293T cells and cell lysates were subjected to anti-HA immunoprecipitation for SND1 pull down. Consistent with in vitro observations (FIG. 22A), WT MTDH, but not mutants W394A, W394D, or W401A, was pulled down along with HA-SND1 (FIG. 22C, in red). […] Likewise, the SND1 mutations that affected MTDH-binding in vitro also affected the binding of full-length proteins in vivo to similar levels."}
{"binder": "B11", "binding result": "binds"}
{"binder": "B12", "binding result": "no binding"}
{"binder": "B13", "binding result": "no binding"}
{"binder": "B14", "binding result": "no binding"}
